Results: paper doi:10.1101/498865
Like-named read-outs stand apart in the source and are kept apart here.

B1: Cam2 (fission yeast calmodulin-like protein) (natural protein)
chain: MPASKEQTDEMKEAFVLYDIDKDGLIPTSHVGSVLRSLGINVTDAELAKLSNELGDAIDEKKFMSFVSNKLRETESEEEYIKAFRVFDKDNSGYIETAKFADYMKTLGEKLSDNEVQLMVQEADPTNSGSFDYYDFVQRIMAK

Tests used:
Test in all cases: other fluorescence titration
[1] = biological target: CyPet-Myo1^IQ1-YPet FRET reporter protein (S. pombe)
[2] = biological target: CyPet-Myo1^IQ12-YPet FRET reporter protein (S. pombe)
[3] = biological target: CyPet-Myo1^IQ1-YPet FRET reporter protein (S. pombe); remark: listed apart in the source
[4] = biological target: CyPet-Myo1^IQ12-S742D-YPet FRET reporter protein (S. pombe)
[5] = biological target: CyPet-Myo1^IQ12-YPet FRET reporter protein (S. pombe); remark: listed apart in the source

| Molecule | Kd [1] [nM] | KD of the first binding event [2] [µM] | KD of the second binding event [2] [µM] | Kd [3] [nM] | Kd [4] [nM] | stoichiometry N [4] | KD of the phase with 70% of the signal change [5] [µM] | stoichiometry N [5] |
| --- | --- | --- | --- | --- | --- | --- | --- | --- |
| Cam1 (fission yeast calmodulin), amino-terminally acetylated (from UniProt P05933 1-150) (natural protein) | < 100 | < 0.1 | 0.68 | – | – | – | – | – |
| B1 | – | – | – | 400 | 250 | 1 | 1.1 | 2 |
